# In IntAct's records for PubMed 8174709:
# B1: Ferredoxin--NADP reductase, chloroplastic (Spinacia oleracea (Spinach)), P00455 (parent)
# chain: MTTAVTAAVSFPSTKTTSLSARSSSVISPDKISYKKVPLYYRNVSATGKMGPIRAQIASDVEAPPPAPAKVEKHSKKMEEGITVNKFKPKTPYVGRCLLNTKITGDDAPGETWHMVFSHEGEIPYREGQSVGVIPDGEDKNGKPHKLRLYSIASSALGDFGDAKSVSLCVKRLIYTNDAGETIKGVCSNFLCDLKPGAEVKLTGPVGKEMLMPKDPNATIIMLGTGTGIAPFRSFLWKMFFEKHDDYKFNGLAWLFLGVPTSSSLLYKEEFEKMKEKAPDNFRLDFAVSREQTNEKGEKMYIQTRMAQYAVELWEMLKKDNTYFYMCGLKGMEKGIDDIMVSLAAAEGIDWIEYKRQLKKAEQWNVEVY
# Variants of: B1
# Settings: with fer1_spiol PETF
row,Variant,effect of a mutation on the interaction
1,K88Q,decreasing interaction
